Experimental findings from the supplement of paper PMC10065799, “High-throughput profiling of sequence recognition by tyrosine kinases and SH2 domains using bacterial peptide display” (eLife, 2023) are described below.

Data set [1] addresses Hck (UniProt P08631). As to the kind of experiment: phosphorylation enrichment, bacterial display (enrichment ratio); higher = better substrate or ligand; peptides without Tyr show the background.
For data set [2], the target named is Jak2 (UniProt O60674). The description is as above.
For data set [3], the target named is Fyn (UniProt P06241). Described as above.
Data set [4] deals with Fes (UniProt P07332). The description is as above.
Data set [5] relates to Fer (mouse). The description is as above.
In data set [6] the test system is c-Src. Described as above.
The target in data set [7] is EPHB2 (UniProt P29323). Described as above.
In data set [8] the target is MERTK (UniProt Q12866). Described as above.
In data set [9] the test system is c-Abl (mouse). The data set is described as above.
The target of data set [10] is EPHB1 (UniProt P54762). The data set is described as above.
Data set [11] has as its target FGFR1 (UniProt P11362). Described as above.
Data set [12] has as its target FGFR3 (UniProt P22607). The description is as above.
For data set [13], the system named is AncSZ. Described as above.
Data set [14] concerns the target Grb2 SH2 (UniProt P62993). Put plainly: SH2 binding enrichment of the phosphorylated peptide, bacterial display (enrichment ratio); higher = better substrate or ligand; peptides without Tyr show the background.
The target in data set [15] is c-Src SH2. The description is as above.
Data set [16] has as its target SHP2-C SH2. The description is as above.
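Throughout, for SH2 binding enrichment of the phosphorylated peptide, bacterial display: peptide library displayed on the E. coli surface as eCPX fusions, selected cells deep-sequenced, score is each peptide's frequency after selection divided by its frequency in the input.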
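Throughout, for phosphorylation enrichment, bacterial display: 11-residue human phosphosite peptides and single-mutation variants displayed on the E. coli surface, counted by deep sequencing, each peptide's frequency after selection divided by its frequency in the unselected input library; frequency after pTyr selection over input frequency; kinase dosed for 20-30% of maximal phosphorylation in three min.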

FGFR1, sequence (P11362 whole entry, looked up): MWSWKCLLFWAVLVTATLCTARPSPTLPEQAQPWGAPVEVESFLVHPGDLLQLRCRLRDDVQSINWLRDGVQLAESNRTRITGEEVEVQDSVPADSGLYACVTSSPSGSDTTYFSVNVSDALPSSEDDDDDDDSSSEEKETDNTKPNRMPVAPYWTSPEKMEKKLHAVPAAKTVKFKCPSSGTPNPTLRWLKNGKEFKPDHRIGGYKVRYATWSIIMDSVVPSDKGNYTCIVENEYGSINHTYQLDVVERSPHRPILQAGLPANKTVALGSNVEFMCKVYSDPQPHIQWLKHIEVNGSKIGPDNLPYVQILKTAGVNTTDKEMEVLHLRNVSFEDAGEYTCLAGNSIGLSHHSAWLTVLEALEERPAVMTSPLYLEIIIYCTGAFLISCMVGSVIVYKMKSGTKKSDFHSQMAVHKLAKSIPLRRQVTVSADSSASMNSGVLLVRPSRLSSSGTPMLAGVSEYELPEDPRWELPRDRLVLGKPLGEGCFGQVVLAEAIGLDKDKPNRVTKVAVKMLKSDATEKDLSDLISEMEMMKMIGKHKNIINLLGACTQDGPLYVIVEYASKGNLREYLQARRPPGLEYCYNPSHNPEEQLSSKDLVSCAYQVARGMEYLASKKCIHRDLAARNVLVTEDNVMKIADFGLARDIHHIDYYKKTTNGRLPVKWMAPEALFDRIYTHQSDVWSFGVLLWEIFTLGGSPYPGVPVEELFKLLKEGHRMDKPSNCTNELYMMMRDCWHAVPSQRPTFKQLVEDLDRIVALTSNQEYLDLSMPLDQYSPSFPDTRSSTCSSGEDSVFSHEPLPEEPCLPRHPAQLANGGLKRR
Hck, sequence (P08631 whole entry, looked up): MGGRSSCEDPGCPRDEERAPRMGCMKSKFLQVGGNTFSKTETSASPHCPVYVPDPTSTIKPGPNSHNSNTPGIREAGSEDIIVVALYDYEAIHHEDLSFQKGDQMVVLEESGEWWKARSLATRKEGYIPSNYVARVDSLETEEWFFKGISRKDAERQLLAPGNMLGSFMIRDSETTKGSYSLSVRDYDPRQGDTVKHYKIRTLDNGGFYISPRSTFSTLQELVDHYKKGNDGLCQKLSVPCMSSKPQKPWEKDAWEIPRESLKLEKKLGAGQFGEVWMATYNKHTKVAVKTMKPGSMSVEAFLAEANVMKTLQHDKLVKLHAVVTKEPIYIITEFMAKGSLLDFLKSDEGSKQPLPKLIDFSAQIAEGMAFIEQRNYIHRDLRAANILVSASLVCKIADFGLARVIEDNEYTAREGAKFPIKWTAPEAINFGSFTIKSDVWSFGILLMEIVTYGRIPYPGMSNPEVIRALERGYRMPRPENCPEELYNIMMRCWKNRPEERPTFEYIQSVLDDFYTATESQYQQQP
FGFR3, sequence (P22607 whole entry, looked up): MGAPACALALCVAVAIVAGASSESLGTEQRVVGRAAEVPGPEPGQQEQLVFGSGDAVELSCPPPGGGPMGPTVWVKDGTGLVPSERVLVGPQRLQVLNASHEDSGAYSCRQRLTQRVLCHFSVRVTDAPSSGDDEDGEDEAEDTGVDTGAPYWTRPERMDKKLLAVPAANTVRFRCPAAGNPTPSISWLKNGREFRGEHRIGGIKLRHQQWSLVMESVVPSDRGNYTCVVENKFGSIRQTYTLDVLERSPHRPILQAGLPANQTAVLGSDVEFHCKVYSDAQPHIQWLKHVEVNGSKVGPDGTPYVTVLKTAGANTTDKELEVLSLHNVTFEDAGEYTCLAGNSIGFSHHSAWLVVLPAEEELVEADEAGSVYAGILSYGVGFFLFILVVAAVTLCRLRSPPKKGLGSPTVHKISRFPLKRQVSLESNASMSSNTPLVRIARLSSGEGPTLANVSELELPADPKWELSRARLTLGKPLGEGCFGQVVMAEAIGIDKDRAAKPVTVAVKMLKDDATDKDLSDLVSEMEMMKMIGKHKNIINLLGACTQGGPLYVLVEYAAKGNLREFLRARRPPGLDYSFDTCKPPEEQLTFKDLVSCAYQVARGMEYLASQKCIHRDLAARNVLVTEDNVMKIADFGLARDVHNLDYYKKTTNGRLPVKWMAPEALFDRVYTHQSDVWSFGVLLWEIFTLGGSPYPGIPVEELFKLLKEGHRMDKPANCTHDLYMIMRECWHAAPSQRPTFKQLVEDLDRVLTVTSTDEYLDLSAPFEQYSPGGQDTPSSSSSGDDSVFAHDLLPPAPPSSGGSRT
Fyn, sequence (P06241 whole entry, looked up): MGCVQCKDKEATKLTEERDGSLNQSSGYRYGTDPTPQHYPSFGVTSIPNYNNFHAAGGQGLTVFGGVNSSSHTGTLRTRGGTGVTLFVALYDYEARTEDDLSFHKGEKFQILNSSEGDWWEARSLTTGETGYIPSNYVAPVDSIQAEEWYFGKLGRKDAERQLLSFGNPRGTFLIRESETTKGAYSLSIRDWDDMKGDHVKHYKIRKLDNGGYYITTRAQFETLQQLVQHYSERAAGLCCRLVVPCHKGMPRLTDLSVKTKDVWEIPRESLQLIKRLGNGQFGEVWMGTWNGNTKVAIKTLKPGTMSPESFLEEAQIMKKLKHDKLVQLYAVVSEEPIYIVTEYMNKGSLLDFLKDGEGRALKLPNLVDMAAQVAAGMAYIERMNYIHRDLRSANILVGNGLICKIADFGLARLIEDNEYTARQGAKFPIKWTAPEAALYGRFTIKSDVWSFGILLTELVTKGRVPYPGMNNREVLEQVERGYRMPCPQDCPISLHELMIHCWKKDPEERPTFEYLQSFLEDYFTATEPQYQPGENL
Jak2, sequence (O60674 whole entry, looked up): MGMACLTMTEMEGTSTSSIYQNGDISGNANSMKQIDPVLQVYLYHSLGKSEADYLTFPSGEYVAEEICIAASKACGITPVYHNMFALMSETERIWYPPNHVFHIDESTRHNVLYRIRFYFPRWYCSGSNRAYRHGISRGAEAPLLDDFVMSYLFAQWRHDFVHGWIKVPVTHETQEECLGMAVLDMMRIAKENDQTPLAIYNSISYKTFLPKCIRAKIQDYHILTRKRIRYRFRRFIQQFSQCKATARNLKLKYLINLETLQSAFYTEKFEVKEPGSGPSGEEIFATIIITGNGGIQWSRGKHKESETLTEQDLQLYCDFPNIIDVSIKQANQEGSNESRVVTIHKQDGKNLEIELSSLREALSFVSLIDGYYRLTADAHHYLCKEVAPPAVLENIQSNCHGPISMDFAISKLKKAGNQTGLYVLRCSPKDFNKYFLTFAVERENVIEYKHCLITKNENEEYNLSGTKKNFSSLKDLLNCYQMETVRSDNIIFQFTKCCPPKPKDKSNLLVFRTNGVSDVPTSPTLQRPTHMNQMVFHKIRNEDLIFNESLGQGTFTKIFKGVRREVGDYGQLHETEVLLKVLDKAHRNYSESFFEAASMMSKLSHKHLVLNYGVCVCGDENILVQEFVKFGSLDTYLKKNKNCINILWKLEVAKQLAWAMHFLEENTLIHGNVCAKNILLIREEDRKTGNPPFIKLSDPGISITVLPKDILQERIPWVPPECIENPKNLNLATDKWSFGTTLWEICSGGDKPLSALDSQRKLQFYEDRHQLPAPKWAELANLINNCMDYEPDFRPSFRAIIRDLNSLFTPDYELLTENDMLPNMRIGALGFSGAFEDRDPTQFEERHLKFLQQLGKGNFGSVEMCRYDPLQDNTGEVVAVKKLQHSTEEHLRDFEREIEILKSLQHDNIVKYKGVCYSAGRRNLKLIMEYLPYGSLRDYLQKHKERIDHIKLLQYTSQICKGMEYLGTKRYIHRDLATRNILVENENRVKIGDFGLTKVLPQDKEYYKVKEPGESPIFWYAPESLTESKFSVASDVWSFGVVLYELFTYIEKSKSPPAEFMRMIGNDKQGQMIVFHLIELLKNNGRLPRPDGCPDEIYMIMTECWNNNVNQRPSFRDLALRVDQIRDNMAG
Fes, sequence (P07332 whole entry, looked up): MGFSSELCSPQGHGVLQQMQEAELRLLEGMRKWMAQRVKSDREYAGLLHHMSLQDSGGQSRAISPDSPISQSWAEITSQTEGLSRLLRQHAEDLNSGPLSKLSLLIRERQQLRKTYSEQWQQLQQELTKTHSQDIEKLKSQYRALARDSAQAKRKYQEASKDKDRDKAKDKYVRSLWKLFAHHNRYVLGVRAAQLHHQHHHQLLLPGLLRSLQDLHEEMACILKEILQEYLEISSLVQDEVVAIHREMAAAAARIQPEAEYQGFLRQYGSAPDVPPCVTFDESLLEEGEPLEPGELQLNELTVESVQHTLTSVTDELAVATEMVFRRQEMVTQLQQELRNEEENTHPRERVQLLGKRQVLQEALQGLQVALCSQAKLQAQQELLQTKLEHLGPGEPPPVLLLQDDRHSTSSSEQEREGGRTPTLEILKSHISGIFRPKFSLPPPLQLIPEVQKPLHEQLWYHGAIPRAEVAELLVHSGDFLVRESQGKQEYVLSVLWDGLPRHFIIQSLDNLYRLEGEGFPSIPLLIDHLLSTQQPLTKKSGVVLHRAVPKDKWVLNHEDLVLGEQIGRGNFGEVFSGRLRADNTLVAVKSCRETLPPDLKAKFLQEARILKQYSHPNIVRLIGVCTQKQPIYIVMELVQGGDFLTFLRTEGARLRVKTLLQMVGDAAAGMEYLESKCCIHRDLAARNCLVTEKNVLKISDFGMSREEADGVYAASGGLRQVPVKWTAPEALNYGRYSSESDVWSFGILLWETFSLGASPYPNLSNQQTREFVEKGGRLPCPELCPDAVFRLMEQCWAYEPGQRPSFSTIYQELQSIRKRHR
Grb2 SH2, sequence (P62993 whole entry, looked up): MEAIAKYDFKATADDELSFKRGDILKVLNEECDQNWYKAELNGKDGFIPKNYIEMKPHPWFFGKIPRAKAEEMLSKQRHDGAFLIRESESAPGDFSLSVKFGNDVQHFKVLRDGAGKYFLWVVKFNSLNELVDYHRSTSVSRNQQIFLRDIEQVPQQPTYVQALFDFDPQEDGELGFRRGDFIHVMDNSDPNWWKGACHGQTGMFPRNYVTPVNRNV

For GLRQSYFVEAQ [APCS_Y142_G141S], the phosphorylation enrichment came to 0.505 in [1]; 0.596 in data set [2]; 0.457 in data set [3]; 0.825 in [4]; 0.378 in [5]; 0.453 in [6]. The phosphorylation enrichment in data set [7] is 0.491; in data set [8], 0.543; in data set [9], 0.48; in data set [10], 0.532; in data set [11], 0.612; in data set [12], 0.697. The phosphorylation enrichment in [13] came to 0.717. Moreover, the values for the SH2 binding enrichment in [14], in data set [15] and in [16] were 0.686, 0.681 and 0.726, respectively.
Regarding GLSSAYGGLTS [KRT8_Y427], the phosphorylation enrichment in data set [1] is 0.545; in data set [2] it was 0.506; in [3] it was 0.513; in [4] it was 0.584; in [5] it was 0.422; in [6], 0.469. The phosphorylation enrichment stood at 0.347 in data set [7]; 0.341 in data set [8]; 0.543 in data set [9]; 0.555 in data set [10]; 0.351 in [11]; 0.449 in data set [12]. In data set [13], the phosphorylation enrichment was determined as 0.516. Further, the SH2 binding enrichment in data set [14] came to 0.876; in data set [15], 0.42; in data set [16] it was 0.572.
On to GNLLIYTKFGK [HGD_Y166_E168K], for which the phosphorylation enrichment in [1] came to 1.36; in [2], 1.26; in data set [3] it was 1.46; in [4], 1.28; in [5], 0.532; in [6], 2.02. In addition, the phosphorylation enrichment in [7] worked out at 0.666; in data set [8], 0.991; in [9], 1.5; in [10], 0.921; in [11], 0.572; in [12], 0.788. In addition, in [13], the phosphorylation enrichment was 1.31. Also, the SH2 binding enrichment in [14] stood at 0.666; in data set [15], 0.571; in data set [16], 0.755.
Regarding GPIFRYDLGGA [CYP11B1_Y81], the phosphorylation enrichment in data set [1] was found to be 0.357; in data set [2], 0.568; in data set [3], 0.45; in data set [4], 0.822; in data set [5], 0.466; in data set [6], 0.394. Further, the phosphorylation enrichment in data set [7] was determined as 0.431; in data set [8] it was 0.345; in data set [9] it was 0.497; in [10], 0.478; in [11], 0.432; in [12] it was 0.433. Besides, in data set [13], the phosphorylation enrichment was 0.777. The SH2 binding enrichment was found to be 0.97 in data set [14], 0.518 in data set [15] and 0.859 in [16].
For GPKFVYDEIDN [ACOX1_Y232_G231V], the phosphorylation enrichment in data set [1] is 0.467; in data set [2] it was 0.92; in [3] it was 0.537; in data set [4] it was 1.04; in data set [5], 0.409; in data set [6], 0.514. Also, the phosphorylation enrichment in data set [7] came to 0.556; in data set [8], 0.413; in [9], 0.652; in [10], 0.505; in [11] it was 0.482; in data set [12], 0.57. Moreover, in data set [13], the phosphorylation enrichment was 1.1. For the same sequence, the SH2 binding enrichment in data set [14] was 0.709; in [15] it was 24.5; in [16], 0.653.
For GQRDLYSGLNE [CD3E_Y199_Q204E], the phosphorylation enrichment in [1] is 9.08; in data set [2] it was 0.716; in data set [3], 4.4; in data set [4] it was 0.89; in data set [5], 1.94; in data set [6], 5.28. For the same sequence, the phosphorylation enrichment in data set [7] came out at 1.3; in data set [8], 2.58; in [9], 0.566; in [10], 1.12; in data set [11], 0.555; in data set [12], 0.653. The phosphorylation enrichment in data set [13] came to 1.23. Also, the SH2 binding enrichment in data set [14] worked out at 0.878; in [15] it was 0.724; in [16] it was 0.64.
With GRMLQYLTVND [PPFIBP2_Y663_R658G], the phosphorylation enrichment is 0.489 in [1]; 0.811 in data set [2]; 0.401 in [3]; 0.97 in data set [4]; 0.42 in data set [5]; 0.436 in [6]. The phosphorylation enrichment in data set [7] was 0.477; in data set [8] it was 0.319; in data set [9] it was 0.593; in [10], 0.52; in data set [11] it was 0.51; in data set [12], 0.575. Further, the phosphorylation enrichment in [13] is 0.792. Also, the SH2 binding enrichment in [14] was found to be 0.99; in data set [15] it was 0.598; in data set [16], 0.998.
Take GRSTYYWPSPR [GAGE12J_Y10_R13S]: the phosphorylation enrichment in [1] stood at 7.41; in data set [2], 7.45; in data set [3] it was 6.75; in data set [4] it was 0.796; in data set [5], 1.44; in [6] it was 7.28. Besides, the phosphorylation enrichment in data set [7] stood at 11.1; in data set [8], 17; in data set [9] it was 6.32; in [10] it was 10.5; in data set [11] it was 7.32; in [12] it was 5.22. Also, the phosphorylation enrichment in data set [13] came to 1.78. For the same sequence, the figures for the SH2 binding enrichment in [14], in data set [15] and in data set [16] were 1.12, 0.898 and 0.923, respectively.
As for GTATAYLCRVK [ALPL_Y117_G120R], the phosphorylation enrichment came to 0.389 in [1]; 0.578 in data set [2]; 0.404 in data set [3]; 0.804 in data set [4]; 0.517 in [5]; 0.399 in data set [6]. The phosphorylation enrichment in data set [7] was determined as 0.506; in data set [8], 0.363; in data set [9], 0.595; in data set [10], 0.48; in data set [11] it was 0.471; in data set [12], 0.514. For the same sequence, the phosphorylation enrichment in [13] is 0.678. In addition, the SH2 binding enrichment in [14] amounted to 1.07; in data set [15] it was 0.525; in data set [16] it was 0.771.
